Results published in publication doi:10.1101/2021.04.21.440798 (bioRxiv, 2021).

Molecular target: GFP-T6BP (TAX1BP1 / TRAF6-Binding Protein fused to GFP) (UniProt Q86VP1 1-789)
Test: co-IP

GFP-T6BP (TAX1BP1 / TRAF6-Binding Protein fused to GFP), sequence (Q86VP1 whole entry, the tested form may be a part): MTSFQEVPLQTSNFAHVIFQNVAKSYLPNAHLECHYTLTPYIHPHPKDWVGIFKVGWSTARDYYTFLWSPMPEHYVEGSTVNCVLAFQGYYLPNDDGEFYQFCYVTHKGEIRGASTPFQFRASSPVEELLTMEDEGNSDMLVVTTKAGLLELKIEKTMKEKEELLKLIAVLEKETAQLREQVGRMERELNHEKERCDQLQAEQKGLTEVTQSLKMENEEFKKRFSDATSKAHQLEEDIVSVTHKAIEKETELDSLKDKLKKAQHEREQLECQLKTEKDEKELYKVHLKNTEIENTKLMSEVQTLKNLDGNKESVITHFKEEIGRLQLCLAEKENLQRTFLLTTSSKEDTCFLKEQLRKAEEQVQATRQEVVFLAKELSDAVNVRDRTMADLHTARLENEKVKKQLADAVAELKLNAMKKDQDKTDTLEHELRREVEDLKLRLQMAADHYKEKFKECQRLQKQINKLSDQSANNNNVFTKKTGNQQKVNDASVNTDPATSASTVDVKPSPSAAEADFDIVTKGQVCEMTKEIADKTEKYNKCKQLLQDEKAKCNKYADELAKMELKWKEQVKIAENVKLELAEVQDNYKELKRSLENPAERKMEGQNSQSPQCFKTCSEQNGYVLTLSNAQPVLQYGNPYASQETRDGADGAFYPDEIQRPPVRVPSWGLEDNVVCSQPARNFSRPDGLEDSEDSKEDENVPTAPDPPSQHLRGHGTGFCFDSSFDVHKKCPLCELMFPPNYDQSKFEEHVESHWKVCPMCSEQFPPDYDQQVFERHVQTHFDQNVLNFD

- fold enrichment over the GFP control: 3 fold
B1: Calnexin (CANX), endogenous (natural protein)
chain: HDGHDDDVIDIEDDLDDVIEEVEDSKPDTTAPPSSPKVTYKAPVPTGEVYFADSFDRGTLSGWILSKAKKDDTDDEIAKYDGKWEVEEMKESKLPGDKGLVLMSRAKHHAISAKLNKPFLFDTKPLIVQYEVNFQNGIECGGAYVKLLSKTPELNLDQFHDKTPYTIMFGPDKCGEDYKLHFIFRHKNPKTGIYEEKHAKRPDADLKTYFTDKKTHLYTLILNPDNSFEILVDQSVVNSGNLLNDMTPPVNPSREIEDPEDRKPEDWDERPKIPDPEAVKPDDWDEDAPAKIPDEEATKPEGWLDDEPEYVPDPDAEKPEDWDEDMDGEWEAPQIANPRCESAPGCGVWQRPVIDNPNYKGKWKPPMIDNPSYQGIWKPRKIPNPDFFEDLEPFRMTPFSAIGLELWSMTSDIFFDNFIICADRRIVDDWANDGWGLKKAADGAAEPGVVGQMIEAAEERPWLWVVYILTVALPVFLVILFCCSGKKQTSGMEYKKTDAPQPDVKEEEEEKEEEKDKGDEEEEGEEKLEEKQKSDAEEDGGTVSQEEEDRKPKAEEDEILNRSPRNRKPRRE
